Assay results: paper PMC3891622, “The Sphingolipid Receptor S1PR2 Is a Receptor for Nogo-A Repressing Synaptic Plasticity” (PLoS Biology, 2014)

T1: Fluorescently labeled recombinant Nogo-A-Δ20 (rat aa544-725) (rat), Q9JK11
T1 chain: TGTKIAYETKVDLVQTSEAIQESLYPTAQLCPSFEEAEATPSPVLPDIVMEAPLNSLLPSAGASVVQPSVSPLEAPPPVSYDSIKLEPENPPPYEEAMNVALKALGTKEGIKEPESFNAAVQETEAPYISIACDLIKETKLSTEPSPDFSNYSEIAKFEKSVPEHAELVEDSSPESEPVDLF

T2: Fluorescently labeled recombinant Nogo-A-Δ20 (rat aa544-725) (rat, UniProt Q9JK11-1 544-725, fluorescent label (Amine Reactive Protein labeling kit RED, L001, Nano Temper technologies))
T2 construct: Nogo-A (Rtn4), rat, residues 544-725 (Nogo-A-Δ20 domain); not shown: T7 or HA (His-/T7- or His-/HA-tagged)
T2 sequence (looked up): T1 chain

B1: S1PR2 extracellular loop 3 peptide (peptide)
peptide: SILLLDSTCPVRACPVLYK
modifications: here or on the partner: fluorescent label (Amine Reactive Protein labeling kit RED, L001, Nano Temper technologies)
B2: S1PR2 extracellular loop 1 peptide (peptide)
peptide: LSGHVTLSLTPVQW
notes: Extracellular loop 1 of S1PR2; also called ECL1; source: synthetic peptide (JPT Peptide Technologies)
B3: S1PR2 extracellular loop 2 peptide (peptide)
peptide: NCLNQLEACSTVLPLYAKHYVL
modifications: here or on the partner: fluorescent label (Amine Reactive Protein labeling kit RED, L001, Nano Temper technologies)
B4: S1PR2 N-terminus peptide (peptide)
peptide: MGGLYSEYLNPEKVQEHYNYTKETLDMQETPSRK
notes: Extracellular N-terminus of S1PR2; source: synthetic peptide (JPT Peptide Technologies)

How the values were obtained:
[1] = biological target: T1, Fluorescently labeled recombinant …; experiment: MST; Monolith NT.115; fluorescently labeled Nogo-A-Δ20 constant (~40 nM), peptides serially diluted; PBS with 0.025% Tween-20, pH 7.4; LED 60%, IR laser 20%; non-linear regression with Hill coefficient 1.0; settings: remark: other sources report otherwise
[2] = biological target: T2, Fluorescently labeled recombinant …; experiment: as above; settings: both partners purified

Binder | Kd [1] [µM] | Kd [2] [µM]
B1 | 0.35 | 
B2 |  | ~1.7
B3 | 0.28 | 
B4 |  | ~11
